Columns and labels:
[1] = target: Biotinylated Spike RBD protein (SARS-CoV-2, UniProt P0DTC2, biotin); test: BLI
[2] = target: Spike-RBD-15aa-LgBiT-12xHisTag (SARS-CoV-2, UniProt P0DTC2); test: split reporter
[3] = target: Spike-RBD-25aa-SmBiT-12xHisTag (SARS-CoV-2, UniProt P0DTC2); test: split reporter

Measured: binding result

B1: C105 IgG (antibody, V domains shown)
VH: QVQLVESGGGLIQPGGSLRLSCAASGFTVSSNYMSWVRQAPGKGLEWVSVIYSGGSTYYADSVKGRFTISRDNSKNTLYLQMNSLRAEDTAVYYCARGEGWELPYDYWGQGTLVTVSS
VL: QSALTQPPSASGSPGQSVTISCTGTSSDVGGYKYVSWYQQHPGKAPKLMIYEVSKRPSGVPDRFSGSKSGNTASLTVSGLQAEDEADYYCSSYEGSNNFVVFGGGTKLTVL
binds: all assays above

Reference: PMC8355051 (Nature biotechnology, 2021)
